Measurements: article doi:10.1101/2023.06.19.545627v1, “Pharmacokinetic profile of the synthetic mu-opioid receptor agonist [Lys7]Dermorphin-IRDye®800CW and its feasibility as a biomarker for opioid use disorder” (bioRxiv, 2023)

Columns and labels:
[1] = Plasma pharmacokinetics by direct carotid artery fluorescence imaging after intravenous injection; conditions: for Plasma half-life (time in which the concentration of dye is 50% of initial) / Distribution (α) half-life / Elimination (β) half-life: IV; for Distribution (α) half-life / Elimination (β) half-life: biexponential; for Distribution (α) half-life / Elimination (β) half-life / Distribution rate, b / Elimination rate, d: value (95% CI); for Distribution rate, b / Elimination rate, d: biexponential fit
[2] = biological target: MOR (Mus musculus, UniProt P42866); assay: Whole body biodistribution by cryo-macrotome fluorescence imaging, wildtype vs MOR knockout; conditions: 1 hour after IV injection
MOR, sequence (P42866 whole entry, looked up): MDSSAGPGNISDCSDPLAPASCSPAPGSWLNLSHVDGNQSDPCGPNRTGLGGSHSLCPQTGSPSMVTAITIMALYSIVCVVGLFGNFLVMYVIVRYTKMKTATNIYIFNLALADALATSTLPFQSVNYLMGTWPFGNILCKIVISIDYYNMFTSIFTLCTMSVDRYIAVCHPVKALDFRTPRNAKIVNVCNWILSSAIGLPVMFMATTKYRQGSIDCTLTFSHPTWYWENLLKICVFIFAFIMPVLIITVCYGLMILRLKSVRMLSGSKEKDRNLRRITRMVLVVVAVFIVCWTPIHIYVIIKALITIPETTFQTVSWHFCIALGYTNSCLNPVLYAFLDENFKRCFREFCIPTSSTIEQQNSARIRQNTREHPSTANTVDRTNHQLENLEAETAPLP

[3] = tested on: CHO-K1 cells expressing MOR; assay: Wide field fluorescence microscopy of DRM-800 binding and internalization; type: cell-based, Chinese hamster
Excerpt: Cells were visualized using a Zeiss LSM 800 inverted microscope with a Generation III 750 nm laser light source (Lumencor, Inc., Beaverton, OR) and a Zeiss Plan-Apochromat 20×/0.8 M27 objective lens. The filters used for imaging DRM-800 were 740 nm for excitation, 770 nm dichroic and 780 nm longpass for emission (Filter Set 49037, Chroma Technology Corp., Bellows Falls, VT). Acquisition of micrographs was accomplished using a digital CMOS Camera (C114400-22CU, Hamamatsu Photonics K.K.) with a 2×2 pixel binning. Images were processed in ImageJ FIJI, windowed and leveled identically across samples, and then adjusted step-wise until cells are visible, with each image being shown for transparency.
Wide field fluorescence microscopy (Fig. 3) was used to study the binding and internalization of DRM-800 to stably expressed MORs in the membrane of transfected CHO-K1 cells.

[4] = MOR-knockout mice, n = 4, 1 nmol IV tail vein coinjection with IRDye700DX
[5] = wildtype mice, n = 4, 1 nmol IV tail vein coinjection with IRDye700DX, imaged 1 hour
[6] = rate constants did not differ between groups (wildtype and MOR-knockout mice), 1 nmol IV coinjection with DRM-800

Compound: C[C@@H](NC(=O)[C@@H](N)Cc1ccc(O)cc1)C(=O)N[C@@H](Cc1ccccc1)C(=O)NCC(=O)N[C@@H](Cc1ccc(O)cc1)C(=O)N1CCC[C@H]1C(=O)N[C@@H](CCCCN)C(=O)N[C@@H](CSC1CC(=O)N(CCNC(=O)CCCCC[N+]2=C(/C=C/C3=C(Oc4ccc(S(=O)(=O)O)cc4)C(=C/C=C4/N(CCCCS(=O)(=O)O)c5ccc(S(=O)(=O)O)cc5C4(C)C)/CCC3)C(C)(C)c3cc(S(=O)(=O)[O-])ccc32)C1=O)C(N)=O (stereo partly drawn) [DRM-800, IRDye®800CW-labelled YdAFGYPKC-NH2]
- Plasma half-life (time in which the concentration of dye is 50% of initial) ([1]; MOR knockout mice): 12.6 min
- Distribution (α) half-life ([1]; MOR knockout mice): 6.2 (4.9 - 8.6) min
- Elimination (β) half-life ([1]; MOR knockout mice): 45 (33–68) min
- Distribution rate, b [1, 4]: 0.11 (0.08-0.14) min^−1
- Elimination rate, d [1, 4]: 0.0155 (0.0102 - 0.0202) min^−1
- Plasma half-life following intravenous injection ([1]; mice (abstract summary over wildtype and knockout)): 8 to 12 min
- Plasma half-life (time in which the concentration of dye is 50% of initial) ([1]; wildtype mice): 7.95 min
- Distribution (α) half-life ([1]; wildtype mice): 3.3 (3.1-3.5) min
- Elimination (β) half-life ([1]; wildtype mice): 70.8 (67.2 - 74.8) min
- Distribution rate, b [1, 5]: 0.211 (0.197 - 0.224) min^-1
- Elimination rate, d [1, 5]: 0.0097 (0.0093 - 0.0103) min^-1
- Fluorescence in small and large intestine, wildtype compared with knockout ([2]; cryo-macrotome ROI analysis): elevated levels of DRM-800 compared with knockout mice
- Ratio of average fluorescence wildtype vs knockout, dorsal root ganglion ([2]; cryo-macrotome ROI analysis): 1.8 ± 0.05
- Ratio of average fluorescence wildtype vs knockout, left spiral ganglion ([2]; cryo-macrotome ROI analysis): 2.2 ± 0.2
- Ratio of average fluorescence wildtype vs knockout, right spiral ganglion ([2]; cryo-macrotome ROI analysis): 2.9 ± 0.3
- Ratio of average fluorescence wildtype vs knockout, trigeminal ganglion ([2]; cryo-macrotome ROI analysis): 3.1 ± 0.2
- Fluorescence signal in brain ([2]; either group of mice (wildtype, knockout)): did not observe any appreciable signal
- Binding and internalization seen by fluorescence microscopy ([3]; 2 nM and 25 nM, 35°C, 30 min of incubation, no sucrose): plasma membrane fluorescence as well as fluorescent puncta of high intensity in the perinuclear region of the cytoplasm were observable
- Binding and internalization seen by fluorescence microscopy with internalization inhibited ([3]; 4C with addition of sucrose (0.35 M)): fluorescence was distinctly observed at the plasma membrane and intracellular puncta was greatly reduced

Compound: IRDye®700DX [IRD700, reference compound]
- Distribution rate, b [1, 6]: 0.42 (0.36 - 0.47) min^−1
- Elimination rate, d [1, 6]: 0.054 (0.051 - 0.057) min^−1
